# In PMC12084551:
# Target: full-length GAS2 (GAS2-FL (1–314)) (mouse) (UniProt P11862)
# Assay: SEC; Superdex 75 HR 10/300; 30 mM Tris-HCl pH 8.0, 300 mM KCl, 100 μM ZnCl2, 0.1% β-ME; molecular weight from a calibration with BSA, carbonic anhydrase and cytochrome c
row,stoichiometry N,Substance
1,2,full-length GAS2 (GAS2-FL (1–314)) (from UniProt P11862 1-314) (natural protein)

# Target: microtubules (MTs) polymerized from porcine brain tubulin (pig (porcine brains)) (UniProt Q2XVP4)
# Assay: co-sedimentation; GAS2 proteins at different concentrations with Taxol-stabilized MTs in BRB80 with 1 mM GTP, room temperature, 20 min; 186,000 × g, 10 min, 25 °C; SDS-PAGE, one site-specific binding fit
row,Kd [µM],Substance
1,2.69,GAS2-GAR G255A (from UniProt P11862 198-314) (domain or fragment)
2,9.6,GAS2-GAR G255E (from UniProt P11862 198-314) (domain or fragment)
3,47,GAS2-GAR R252E (from UniProt P11862 198-314) (domain or fragment)
4,10.6,GAS2-GAR K266E (from UniProt P11862 198-314) (domain or fragment)
5,27,GAS2-GAR W257E (from UniProt P11862 198-314) (domain or fragment)
6,5,GAS2-GAR R242E (from UniProt P11862 198-314) (domain or fragment)
7,0.69,GAS2-GAR domain (residues 198–314) (from UniProt P11862 198-314) (domain or fragment)
